According to PMC5956149:

Molecular target: GFP-tagged MtrB (cytosolic catalytic domain of MtrB with GFP downstream) (Mycobacterium tuberculosis)
Assay: MST

In order of falling Kd:
1. MtrB wild type (cytosolic catalytic domain) (domain or fragment)  1170 nM
2. MtrB^N419D (mutant defective in ATP binding, cytosolic catalytic domain) (domain or fragment)  770 nM
3. MtrB^H305Q (phosphorylation site mutant, cytosolic catalytic domain) (domain or fragment)  410 nM
